Measurements published in the supplement of paper PMC10567573.

B1: PPP2R2C (parent)
chain: YSSSKGSLRLCDMRAAALCDKHSK

Variants of: B1
Test: protein stability index of a GFP-peptide fusion (GPS, HEK-293T) (PSI 1-6); higher = more stable
Details: c terminus: a fixed tail appended
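Further: lentivirally expressed fusions sorted by FACS into six bins by GFP to DsRed ratio, PSI derived from sequencing read proportions per bin multiplied by bin number.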

Protein stability index, by site and new letter:
H22: F 1.53; D 1.79; Y 1.91; I 2.22; A 2.02; K 1.54; E 3.04; T 2.11; R 1.56; N 2.04; M 1.7; P 1.16; G 2.31; S 1.62; L 1.6; W 2.05; C 2.17; Q 1.53
A16: F 2.2; R 2.04; H 2.06; W 1.23; K 2.53; D 2.85; N 2.05; Y 1.63; S 2.02; C 2.56; Q 2.18; P 1.64; G 2.55; T 1.97; L 1.3; V 1.82; E 2.28; I 1.84; M 1.5
A15: Y 2.34
S23: T 1.88; V 2.4; H 2.96; C 1.12; L 1.93; G 1.76; M 2.19; W 1.35; I 2.01; K 1.82; P 1.42; Q 1.85; D 1.86; N 1.43; Y 2.52; F 2.57; R 1.78; A 1.79; E 1.81
K24: R 1.9; F 1.36; A 1.85; I 2.06; L 2.13; D 2.22; E 1.96; N 2.15; P 1.9; H 1.43; S 1.65; T 2.39; Q 1.64; M 2.11; C 1.21
K21: P 2.79; G 2.12; E 1.26; M 1.96; L 1.29; C 2.48; H 2.01; S 2.21; D 1.78; V 2.63; N 1.9; T 1.86; Y 1.95; A 2.35; I 1.48; Q 1.82; F 1.95; R 1.69; W 2.12
L18: C 1.55; E 1.9; R 1.96; K 1.73; S 1.79; A 2.15; F 1.69; Q 2.17; M 1.13; W 1.44; I 1.96; G 1.52; T 1.81; N 1.65; Y 1.8; D 1.48; H 2.03; V 2.02; P 1.58
D20: P 2.25; C 1.41; N 2.21; I 2.17; L 2.05; G 2.62; Y 1.96; W 2.31; K 2.6; E 1.97; M 1.98; R 3.31; T 2.18; S 1.81; A 1.64; H 2.64; V 2.58; Q 2.33; F 2.19
C19: W 1.69; D 2.3; R 2.06; Q 1.69; H 1.56; K 2.14; I 2.03; N 1.58; V 1.4; Y 2.01; L 1.55; A 1.74; T 1.71; M 1.68; S 1.73; G 1.25; F 2.32; E 1.62; P 1.84
A17: D 1.51; R 1.78; F 2.36; I 1.39; E 2.16; W 2.33; T 1.52; H 2.29; K 1.85; S 1.31; N 3.18; L 1.75; Q 3.18; G 1.61; V 3.45; Y 2.06; M 1.79; C 2.06; P 2.1
